Measured values from article PMC5732302 (2017).

Molecular target: dynein (Saccharomyces cerevisiae, UniProt P36022)
Sequence (P36022 whole entry): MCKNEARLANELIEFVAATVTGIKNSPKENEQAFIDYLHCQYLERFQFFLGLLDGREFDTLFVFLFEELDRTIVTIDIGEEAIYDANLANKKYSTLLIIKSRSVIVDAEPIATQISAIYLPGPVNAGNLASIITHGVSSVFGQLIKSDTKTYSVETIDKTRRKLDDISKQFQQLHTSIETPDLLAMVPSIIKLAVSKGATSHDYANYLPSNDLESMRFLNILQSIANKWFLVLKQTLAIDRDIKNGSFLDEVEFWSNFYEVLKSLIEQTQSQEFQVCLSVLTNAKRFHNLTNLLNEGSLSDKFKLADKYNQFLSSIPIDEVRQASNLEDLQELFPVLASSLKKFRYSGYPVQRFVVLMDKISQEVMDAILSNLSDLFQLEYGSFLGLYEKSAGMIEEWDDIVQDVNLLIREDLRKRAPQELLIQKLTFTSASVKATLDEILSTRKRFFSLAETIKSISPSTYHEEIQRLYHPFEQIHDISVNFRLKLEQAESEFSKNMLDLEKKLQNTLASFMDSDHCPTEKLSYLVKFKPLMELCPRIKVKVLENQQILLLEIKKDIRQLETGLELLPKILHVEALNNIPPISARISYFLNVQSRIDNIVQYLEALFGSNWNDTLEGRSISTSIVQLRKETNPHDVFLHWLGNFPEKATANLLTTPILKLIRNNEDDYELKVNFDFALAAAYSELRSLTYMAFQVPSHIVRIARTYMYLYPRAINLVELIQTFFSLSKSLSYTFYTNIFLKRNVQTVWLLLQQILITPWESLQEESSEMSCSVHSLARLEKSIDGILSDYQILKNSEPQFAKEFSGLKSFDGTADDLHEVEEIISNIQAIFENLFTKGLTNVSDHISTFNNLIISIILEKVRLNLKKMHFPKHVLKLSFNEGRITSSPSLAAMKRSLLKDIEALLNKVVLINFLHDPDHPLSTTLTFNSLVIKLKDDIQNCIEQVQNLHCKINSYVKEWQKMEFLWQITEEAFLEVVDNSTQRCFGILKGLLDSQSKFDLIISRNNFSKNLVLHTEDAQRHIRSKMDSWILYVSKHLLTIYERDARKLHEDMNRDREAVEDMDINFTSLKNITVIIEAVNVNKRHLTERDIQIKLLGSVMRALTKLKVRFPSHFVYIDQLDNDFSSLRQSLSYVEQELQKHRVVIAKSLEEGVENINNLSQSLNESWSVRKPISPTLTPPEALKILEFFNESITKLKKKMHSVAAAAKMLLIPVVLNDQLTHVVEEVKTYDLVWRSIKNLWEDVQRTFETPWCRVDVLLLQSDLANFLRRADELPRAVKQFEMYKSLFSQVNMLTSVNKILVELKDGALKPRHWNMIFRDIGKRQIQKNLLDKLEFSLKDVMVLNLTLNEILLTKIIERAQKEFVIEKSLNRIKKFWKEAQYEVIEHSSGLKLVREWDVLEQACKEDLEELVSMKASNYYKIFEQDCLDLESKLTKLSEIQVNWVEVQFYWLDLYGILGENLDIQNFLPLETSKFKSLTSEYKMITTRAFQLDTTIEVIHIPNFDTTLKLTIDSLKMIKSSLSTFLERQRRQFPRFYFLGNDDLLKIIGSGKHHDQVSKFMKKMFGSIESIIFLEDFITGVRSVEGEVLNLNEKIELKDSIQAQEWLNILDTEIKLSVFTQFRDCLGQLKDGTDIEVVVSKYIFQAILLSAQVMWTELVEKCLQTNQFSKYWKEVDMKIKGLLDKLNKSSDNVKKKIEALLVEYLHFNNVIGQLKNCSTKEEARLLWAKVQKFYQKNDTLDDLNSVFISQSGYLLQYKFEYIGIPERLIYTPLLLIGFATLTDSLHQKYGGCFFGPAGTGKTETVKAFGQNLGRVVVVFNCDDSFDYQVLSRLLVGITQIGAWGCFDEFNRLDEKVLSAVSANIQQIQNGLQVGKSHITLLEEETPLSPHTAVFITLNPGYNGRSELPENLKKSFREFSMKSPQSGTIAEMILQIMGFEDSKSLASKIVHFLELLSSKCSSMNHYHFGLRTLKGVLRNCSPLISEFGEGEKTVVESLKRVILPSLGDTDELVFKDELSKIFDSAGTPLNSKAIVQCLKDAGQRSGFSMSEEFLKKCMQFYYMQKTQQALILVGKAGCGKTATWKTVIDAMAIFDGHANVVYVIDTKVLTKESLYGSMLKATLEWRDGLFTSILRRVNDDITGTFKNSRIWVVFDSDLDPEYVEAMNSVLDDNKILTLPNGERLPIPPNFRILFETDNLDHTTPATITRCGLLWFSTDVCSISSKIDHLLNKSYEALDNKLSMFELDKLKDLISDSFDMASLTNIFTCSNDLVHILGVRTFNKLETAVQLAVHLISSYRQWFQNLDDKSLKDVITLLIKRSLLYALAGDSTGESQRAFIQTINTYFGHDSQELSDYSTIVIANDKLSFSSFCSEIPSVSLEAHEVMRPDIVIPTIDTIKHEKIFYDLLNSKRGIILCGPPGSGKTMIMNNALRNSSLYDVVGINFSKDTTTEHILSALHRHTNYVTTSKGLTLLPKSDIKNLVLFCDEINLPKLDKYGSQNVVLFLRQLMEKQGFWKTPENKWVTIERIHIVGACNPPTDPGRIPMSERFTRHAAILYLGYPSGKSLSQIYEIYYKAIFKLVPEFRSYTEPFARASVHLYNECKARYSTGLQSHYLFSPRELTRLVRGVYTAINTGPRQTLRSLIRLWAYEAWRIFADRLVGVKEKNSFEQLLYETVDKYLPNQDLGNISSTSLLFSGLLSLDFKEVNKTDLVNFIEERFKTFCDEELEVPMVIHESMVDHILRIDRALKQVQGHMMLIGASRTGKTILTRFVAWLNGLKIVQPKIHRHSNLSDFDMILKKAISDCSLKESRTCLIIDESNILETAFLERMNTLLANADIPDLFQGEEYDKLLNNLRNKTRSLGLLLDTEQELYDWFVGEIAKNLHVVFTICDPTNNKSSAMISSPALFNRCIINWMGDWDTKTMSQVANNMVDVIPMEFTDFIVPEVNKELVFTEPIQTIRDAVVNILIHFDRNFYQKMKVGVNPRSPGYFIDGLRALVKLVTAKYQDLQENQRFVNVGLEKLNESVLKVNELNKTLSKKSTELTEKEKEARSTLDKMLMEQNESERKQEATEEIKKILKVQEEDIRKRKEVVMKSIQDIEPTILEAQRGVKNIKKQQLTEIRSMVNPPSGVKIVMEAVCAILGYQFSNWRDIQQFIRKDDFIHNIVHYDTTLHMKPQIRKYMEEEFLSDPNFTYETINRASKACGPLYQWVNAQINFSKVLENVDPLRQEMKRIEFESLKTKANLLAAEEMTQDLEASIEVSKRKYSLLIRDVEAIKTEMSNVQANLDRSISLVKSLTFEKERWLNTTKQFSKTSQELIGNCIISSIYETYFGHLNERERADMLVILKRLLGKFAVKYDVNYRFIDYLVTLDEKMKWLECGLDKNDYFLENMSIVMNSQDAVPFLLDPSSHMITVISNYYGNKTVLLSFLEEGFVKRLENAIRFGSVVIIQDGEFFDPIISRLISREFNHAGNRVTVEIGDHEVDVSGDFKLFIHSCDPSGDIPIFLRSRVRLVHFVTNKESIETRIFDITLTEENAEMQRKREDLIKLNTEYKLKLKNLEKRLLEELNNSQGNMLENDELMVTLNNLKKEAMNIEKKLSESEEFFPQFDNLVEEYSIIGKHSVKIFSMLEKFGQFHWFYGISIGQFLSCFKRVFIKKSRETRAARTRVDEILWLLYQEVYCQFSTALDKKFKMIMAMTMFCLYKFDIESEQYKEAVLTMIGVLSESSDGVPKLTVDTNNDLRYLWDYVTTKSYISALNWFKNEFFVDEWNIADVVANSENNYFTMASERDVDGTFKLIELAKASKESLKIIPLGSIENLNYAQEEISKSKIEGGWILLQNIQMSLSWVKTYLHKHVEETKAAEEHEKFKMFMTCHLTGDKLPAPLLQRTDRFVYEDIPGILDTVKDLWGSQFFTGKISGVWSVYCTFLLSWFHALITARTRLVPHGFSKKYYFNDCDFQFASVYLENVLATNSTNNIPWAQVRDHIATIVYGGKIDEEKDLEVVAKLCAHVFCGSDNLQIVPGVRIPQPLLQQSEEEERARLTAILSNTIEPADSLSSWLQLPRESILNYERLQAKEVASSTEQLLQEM

B1: She1 (protein)
chain: MNDKLQEEHNEKDTTSQINGFTPPHMSIDFHSNNNSNIIETIGVSKRLGNSVLSELDSRASSKFEFLKDQSEQQYNGDKNNEPKSGSYNINEFFQAKHDSQFGQMESLDTHYTLLHTPKRKSQHAIPQDRSDSMKRSRPSRSIPYTTPVVNDITRRIRRLKLRNSLVNGNDIVARARSMQANSNINSIKNTPLSKPKPFMHKPNFLMPTTNSLNKINSAHRNTSSSSTASSIPRSKVHRSISIRDLHAKTKPVERTPVAQGTNSQLKNSVSVFDRLYKQTTFSRSTSMNNLSSGTSAKSKEHTNVKTRLVKSKTSGSLSSNLKQSTATGTKSDRPIWR
**Q.** B1 was tested. Which Kd did it give?
**A.** < 0.2 nM
